Data on three proteins can be found in paper PMC10466376.

Holding throughout (test): potentiometry
For series [1], the target named is Glu3 (position 3, ---KQEGRDHD). The note with it: 298 K; 0.1 M NaClO4; none (4 mM HClO4 / 100 mM NaClO4); metal-free peptide, 0.5 mM, disordered.
For series [2], the target named is Cterm15 (position 15, SKGHFH-----). The following applies: 298 K; 0.1 M NaClO4; none (4 mM HClO4 / 100 mM NaClO4); metal-free peptide, 0.5 mM, disordered.
Series [3] concerns the target Lys1 (position 1, -----KQEGRD). The following applies: 298 K; 0.1 M NaClO4; none (4 mM HClO4 / 100 mM NaClO4); Zn(II)-bound peptide, mononuclear complex, Zn:peptide 1:1 (supplement captions state 0.9:1), peptide 0.5 mM.
The next series has as its target Lys9 (position 9, …). The following applies: 298 K; 0.1 M NaClO4; none (4 mM HClO4 / 100 mM NaClO4); Zn(II)-bound peptide, mononuclear complex, Zn:peptide 1:1 (supplement captions state 0.9:1), peptide 0.5 mM.
For series [4], the target named is Nterm1 (position 1, -----KQEGRD). The following applies: 298 K, 0.1 M NaClO4, none (4 mM HClO4 / 100 mM NaClO4).
For the next series, the target named is Lys11 (position 11, …-). The note with it: 298 K; 0.1 M NaClO4; none (4 mM HClO4 / 100 mM NaClO4); Zn(II)-bound peptide, mononuclear complex, Zn:peptide 1:1 (supplement captions state 0.9:1), peptide 0.5 mM.
Series [5] deals with Nterm1 (position 1, -----HNKQEG). The note with it: 298 K; 0.1 M NaClO4; none (4 mM HClO4 / 100 mM NaClO4); metal-free peptide, 0.5 mM, disordered.
The target in another series is Glu5 (position 5, -…). The note with it: 298 K; 0.1 M NaClO4; none (4 mM HClO4 / 100 mM NaClO4); metal-free peptide, 0.5 mM, disordered.
Series [6] concerns the target Cterm29 (position 29, KGGKAH-----). The note with it: 298 K; 0.1 M NaClO4; none (4 mM HClO4 / 100 mM NaClO4); metal-free peptide, 0.5 mM, disordered.
The mark [7] stands for this setting: metal-free peptide, 0.5 mM, disordered.

What is called pKa is the negative logarithm of the acid dissociation constant. Low readings indicate a stronger acid or weaker base, high ones a weaker acid or stronger base. Take KQEGRDHDKSKGHFH [Sg-15, 15-residue fragment common to semenogelin I and semenogelin II (Homo sapiens)]: the pKa in series [1] is recorded as 4.36; in [2], 2.34; in series [3], 9.52; with Lys9 (position 9, …), 10.40; in series [4] (Cu(II)-bound peptide, mononuclear complex, Cu:peptide 1:1 (supplement captions state 0.9:1), peptide 0.5 mM), 6.82; in series [4] (Zn(II)-bound peptide, mononuclear complex, Zn:peptide 1:1 (supplement captions state 0.9:1), peptide 0.5 mM) it was 6.88. In addition, the pKa in series [4] (setting [7]) turned out to be 7.58; with Lys11 (position 11, …-), 10.59.

As for KQEGRDHDKSKGHFHMIVIHHKGGQAHHG [SgIIA (SgII peptide A), 29-residue fragment of semenogelin II (Homo sapiens)], the pKa in [1] worked out at 4.26; in [4] (setting [7]) it was 9.47.

For HNKQEGRDHDKSKGHFHRVVIHHKGGKAH [SgI-29, 29-residue fragment of semenogelin I (Homo sapiens)], the pKa in [5] was found to be 9.45; with Glu5 (position 5, -…) it was 3.74; in [6], 2.18.
